{"source": "paper PMC7367873", "about": "“Dissecting the sequence determinants for dephosphorylation by the catalytic subunits of phosphatases PP1 and PP2A” (Nature Communications, 2020)", "molecules": {"B1": {"name": "DDOST (protein, UniProt P39656 43-456, looked up)", "Dolichyl-diphosphooligosacchar …": "SGPRTLVLLDNLNVRETHSLFFRSLKDRGFELTFKTADDPSLSLIKYGEFLYDNLIIFSPSVEDFGGNINVETISAFIDGGGSVLVAASSDIGDPLRELGSECGIEFDEEKTAVIDHHNYDISDLGQHTLIVADTENLLKAPTIVGKSSLNPILFRGVGMVADPDNPLVLDILTGSSTSYSFFPDKPITQYPHAVGKNTLLIAGLQARNNARVIFSGSLDFFSDSFFNSAVQKAAPGSQRYSQTGNYELAVALSRWVFKEEGVLRVGPVSHHRVGETAPPNAYTVTDLVEYSIVIQQLSNGKWVPFDGDDIQLEFVRIDPFVRTFLKKKGGKYSVQFKLPDVYGVFQFKVDYNRLGYTHLYSSTQVSVRPLQHTQYERFIPSAYPYYASAFSMMLGLFIFSIVFLHMKEKEKSD"}, "B2": {"name": "ATAD3A (protein, UniProt Q9NVI7 2-586, looked up)", "ATPase family AAA …": "SWLFGINKGPKGEGAGPPPPLPPAQPGAEGGGDRGLGDRPAPKDKWSNFDPTGLERAAKAARELEHSRYAKDALNLAQMQEQTLQLEQQSKLKEYEAAVEQLKSEQIRAQAEERRKTLSEETRQHQARAQYQDKLARQRYEDQLKQQQLLNEENLRKQEESVQKQEAMRRATVEREMELRHKNEMLRVEAEARARAKAERENADIIREQIRLKAAEHRQTVLESIRTAGTLFGEGFRAFVTDWDKVTATVAGLTLLAVGVYSAKNATLVAGRFIEARLGKPSLVRETSRITVLEALRHPIQVSRRLLSRPQDALEGVVLSPSLEARVRDIAIATRNTKKNRSLYRNILMYGPPGTGKTLFAKKLALHSGMDYAIMTGGDVAPMGREGVTAMHKLFDWANTSRRGLLLFVDEADAFLRKRATEKISEDLRATLNAFLYRTGQHSNKFMLVLASNQPEQFDWAINDRINEMVHFDLPGQEERERLVRMYFDKYVLKPATEGKQRLKLAQFDYGRKCSEVARLTEGMSGREIAQLAVSWQATAYASEDGVLTEAMMDTRVQDAVQQHQQKMCWLKAEGPGRGDEPSPS"}, "B3": {"name": "CAPRIN1 (protein, UniProt Q14444 2-709, looked up)", "Caprin-1": "PSATSHSGSGSKSSGPPPPSGSSGSEAAAGAGAAAPASQHPATGTGAVQTEAMKQILGVIDKKLRNLEKKKGKLDDYQERMNKGERLNQDQLDAVSKYQEVTNNLEFAKELQRSFMALSQDIQKTIKKTARREQLMREEAEQKRLKTVLELQYVLDKLGDDEVRTDLKQGLNGVPILSEEELSLLDEFYKLVDPERDMSLRLNEQYEHASIHLWDLLEGKEKPVCGTTYKVLKEIVERVFQSNYFDSTHNHQNGLCEEEEAASAPAVEDQVPEAEPEPAEEYTEQSEVESTEYVNRQFMAETQFTSGEKEQVDEWTVETVEVVNSLQQQPQAASPSVPEPHSLTPVAQADPLVRRQRVQDLMAQMQGPYNFIQDSMLDFENQTLDPAIVSAQPMNPTQNMDMPQLVCPPVHSESRLAQPNQVPVQPEATQVPLVSSTSEGYTASQPLYQPSHATEQRPQKEPIDQIQATISLNTDQTTASSSLPAASQPQVFQAGTSKPLHSSGINVNAAPFQSMQTVFNMNAPVPPVNEPETLKQQNQYQASYNQSFSSQPHQVEQTELQQEQLQTVVGTYHGSPDQSHQVTGNHQQPPQQNTGFPRSNQPYYNSRGVSRGGSRGARGLMNGYRGPANGFRGGYDGYRPSFSNTPNSGYTQSQFSAPRDYSGYQRDGYQQNFKRGSGQSGPRGAPRGRGGPPRPNRGMPQMNTQQVN"}, "B4": {"name": "P4HA1 (protein, UniProt P13674 18-534, looked up)", "Prolyl 4-hydroxylase subunit …": "HPGFFTSIGQMTDLIHTEKDLVTSLKDYIKAEEDKLEQIKKWAEKLDRLTSTATKDPEGFVGHPVNAFKLMKRLNTEWSELENLVLKDMSDGFISNLTIQRQYFPNDEDQVGAAKALLRLQDTYNLDTDTISKGNLPGVKHKSFLTAEDCFELGKVAYTEADYYHTELWMEQALRQLDEGEISTIDKVSVLDYLSYAVYQQGDLDKALLLTKKLLELDPEHQRANGNLKYFEYIMAKEKDVNKSASDDQSDQKTTPKKKGVAVDYLPERQKYEMLCRGEGIKMTPRRQKKLFCRYHDGNRNPKFILAPAKQEDEWDKPRIIRFHDIISDAEIEIVKDLAKPRLRRATISNPITGDLETVHYRISKSAWLSGYENPVVSRINMRIQDLTGLDVSTAEELQVANYGVGGQYEPHFDFARKDEPDAFKELGTGNRIATWLFYMSDVSAGGATVFPEVGASVWPKKGTAVFWYNLFASGEGDYSTRHAACPVLVGNKWVSNKWLHERGQEFRRPCTLSELE"}, "B5": {"name": "ABCF2 (protein, UniProt Q9UG63 1-623, looked up)", "ATP-binding cassette …": "MPSDLAKKKAAKKKEAAKARQRPRKGHEENGDVVTEPQVAEKNEANGRETTEVDLLTKELEDFEMKKAAARAVTGVLASHPNSTDVHIINLSLTFHGQELLSDTKLELNSGRRYGLIGLNGIGKSMLLSAIGKREVPIPEHIDIYHLTREMPPSDKTPLHCVMEVDTERAMLEKEAERLAHEDAECEKLMELYERLEELDADKAEMRASRILHGLGFTPAMQRKKLKDFSGGWRMRVALARALFIRPFMLLLDEPTNHLDLDACVWLEEELKTFKRILVLVSHSQDFLNGVCTNIIHMHNKKLKYYTGNYDQYVKTRLELEENQMKRFHWEQDQIAHMKNYIARFGHGSAKLARQAQSKEKTLQKMMASGLTERVVSDKTLSFYFPPCGKIPPPVIMVQNVSFKYTKDGPCIYNNLEFGIDLDTRVALVGPNGAGKSTLLKLLTGELLPTDGMIRKHSHVKIGRYHQHLQEQLDLDLSPLEYMMKCYPEIKEKEEMRKIIGRYGLTGKQQVSPIRNLSDGQKCRVCLAWLAWQNPHMLFLDEPTNHLDIETIDALADAINEFEGGMMLVSHDFRLIQQVAQEIWVCEKQTITKWPGDILAYKEHLKSKLVDEEPQLTKRTHNV"}, "B6": {"name": "DHX30 (protein, UniProt Q7L2E3 1-1194, looked up)", "ATP-dependent RNA helicase …": "MFSLDSFRKDRAQHRQRQCKLPPPRLPPMCVNPTPGGTISRASRDLLKEFPQPKNLLNSVIGRALGISHAKDKLVYVHTNGPKKKKVTLHIKWPKSVEVEGYGSKKIDAERQAAAAACQLFKGWGLLGPRNELFDAAKYRVLADRFGSPADSWWRPEPTMPPTSWRQLNPESIRPGGPGGLSRSLGREEEEDEEEELEEGTIDVTDFLSMTQQDSHAPLRDSRGSSFEMTDDDSAIRALTQFPLPKNLLAKVIQIATSSSTAKNLMQFHTVGTKTKLSTLTLLWPCPMTFVAKGRRKAEAENKAAALACKKLKSLGLVDRNNEPLTHAMYNLASLRELGETQRRPCTIQVPEPILRKIETFLNHYPVESSWIAPELRLQSDDILPLGKDSGPLSDPITGKPYVPLLEAEEVRLSQSLLELWRRRGPVWQEAPQLPVDPHRDTILNAIEQHPVVVISGDTGCGKTTRIPQLLLERYVTEGRGARCNVIITQPRRISAVSVAQRVSHELGPSLRRNVGFQVRLESKPPSRGGALLFCTVGILLRKLQSNPSLEGVSHVIVDEVHERDVNTDFLLILLKGLQRLNPALRLVLMSATGDNERFSRYFGGCPVIKVPGFMYPVKEHYLEDILAKLGKHQYLHRHRHHESEDECALDLDLVTDLVLHIDARGEPGGILCFLPGWQEIKGVQQRLQEALGMHESKYLILPVHSNIPMMDQKAIFQQPPVGVRKIVLATNIAETSITINDIVHVVDSGLHKEERYDLKTKVSCLETVWVSRANVIQRRGRAGRCQSGFAYHLFPRSRLEKMVPFQVPEILRTPLENLVLQAKIHMPEKTAVEFLSKAVDSPNIKAVDEAVILLQEIGVLDQREYLTTLGQRLAHISTDPRLAKAIVLAAIFRCLHPLLVVVSCLTRDPFSSSLQNRAEVDKVKALLSHDSGSDHLAFVRAVAGWEEVLRWQDRSSRENYLEENLLYAPSLRFIHGLIKQFSENIYEAFLVGKPSDCTLASAQCNEYSEEEELVKGVLMAGLYPNLIQVRQGKVTRQGKFKPNSVTYRTKSGNILLHKSTINREATRLRSRWLTYFMAVKSNGSVFVRDSSQVHPLAVLLLTDGDVHIRDDGRRATISLSDSDLLRLEGDSRTVRLLKELRRALGRMVERSLRSELAALPPSVQEEHGQLLALLAELLRGPCGSFDVRKTADD"}, "B7": {"name": "RFC1 (protein, UniProt P35251 1-1148, looked up)", "Replication factor C subunit 1": "MDIRKFFGVIPSGKKLVSETVKKNEKTKSDEETLKAKKGIKEIKVNSSRKEDDFKQKQPSKKKRIIYDSDSESEETLQVKNAKKPPEKLPVSSKPGKISRQDPVTYISETDEEDDFMCKKAASKSKENGRSTNSHLGTSNMKKNEENTKTKNKPLSPIKLTPTSVLDYFGTGSVQRSNKKMVASKRKELSQNTDESGLNDEAIAKQLQLDEDAELERQLHEDEEFARTLAMLDEEPKTKKARKDTEAGETFSSVQANLSKAEKHKYPHKVKTAQVSDERKSYSPRKQSKYESSKESQQHSKSSADKIGEVSSPKASSKLAIMKRKEESSYKEIEPVASKRKENAIKLKGETKTPKKTKSSPAKKESVSPEDSEKKRTNYQAYRSYLNREGPKALGSKEIPKGAENCLEGLIFVITGVLESIERDEAKSLIERYGGKVTGNVSKKTNYLVMGRDSGQSKSDKAAALGTKIIDEDGLLNLIRTMPGKKSKYEIAVETEMKKESKLERTPQKNVQGKRKISPSKKESESKKSRPTSKRDSLAKTIKKETDVFWKSLDFKEQVAEETSGDSKARNLADDSSENKVENLLWVDKYKPTSLKTIIGQQGDQSCANKLLRWLRNWQKSSSEDKKHAAKFGKFSGKDDGSSFKAALLSGPPGVGKTTTASLVCQELGYSYVELNASDTRSKSSLKAIVAESLNNTSIKGFYSNGAASSVSTKHALIMDEVDGMAGNEDRGGIQELIGLIKHTKIPIICMCNDRNHPKIRSLVHYCFDLRFQRPRVEQIKGAMMSIAFKEGLKIPPPAMNEIILGANQDIRQVLHNLSMWCARSKALTYDQAKADSHRAKKDIKMGPFDVARKVFAAGEETAHMSLVDKSDLFFHDYSIAPLFVQENYIHVKPVAAGGDMKKHLMLLSRAADSICDGDLVDSQIRSKQNWSLLPAQAIYASVLPGELMRGYMTQFPTFPSWLGKHSSTGKHDRIVQDLALHMSLRTYSSKRTVNMDYLSLLRDALVQPLTSQGVDGVQDVVALMDTYYLMKEDFENIMEISSWGGKPSPFSKLDPKVKAAFTRAYNKEAHLTPYSLQAIKASRHSTSPSLDSEYNEELNEDDSQSDEKDQDAIETDAMIKKKTKSSKPSKPEKDKEPRKGKGKSSKK"}}}
{"system": "GFP-14-3-3β and its binding proteins", "experiment": "GFP-14-3-3β co-IP with LC-MS/MS label-free quantification, untreated versus PP1c-treated", "set-up": "species or system human", "settings": "log2 difference; pairwise comparison PP1 vs untreated, label-free quantification, 3 replicates each"}
{"molecule": "B1", "Difference (log2), PP1 vs untreated": 1.381}
{"molecule": "B2", "Difference (log2), PP1 vs untreated": 1.381}
{"molecule": "B3", "Difference (log2), PP1 vs untreated": 1.323}
{"molecule": "B4", "Difference (log2), PP1 vs untreated": 1.3164}
{"molecule": "B5", "Difference (log2), PP1 vs untreated": 1.378}
{"molecule": "B6", "Difference (log2), PP1 vs untreated": 1.371}
{"molecule": "B7", "Difference (log2), PP1 vs untreated": 1.349}
{"system": "GFP-14-3-3β", "experiment": "GFP-14-3-3β co-IP with LC-MS/MS, untreated GFP-14-3-3β versus GFP control (14-3-3 interactome)", "assay_type": "binding, human", "settings": "log2 difference; pairwise comparison untreated vs GFP, label-free quantification, 3 replicates each"}
{"molecule": "B1", "Difference (log2), untreated vs GFP": -0.4067}
{"molecule": "B2", "Difference (log2), untreated vs GFP": -0.296}
{"molecule": "B3", "Difference (log2), untreated vs GFP": -0.3406}
{"molecule": "B4", "Difference (log2), untreated vs GFP": -0.8349}
{"molecule": "B5", "Difference (log2), untreated vs GFP": -0.5576}
{"molecule": "B6", "Difference (log2), untreated vs GFP": 0.9044}
{"molecule": "B7", "Difference (log2), untreated vs GFP": 0.4473}
